In publication PMC5253702 one finds stoichiometry N data, which are given here for 1 substance.

This test deals with B/Victoria/504/2000 HA ectodomain (residues 1–530), soluble, His-tagged (influenza B virus B/Victoria/504/2000). The experiment in a line: negative stain EM reconstruction.

Consider “B/Victoria/504/2000 HA ectodomain (residues 1–530), soluble, His-tagged (domain or fragment)”, for which the stoichiometry N stood at 3.
